One block for each substance: values may come before it.
Tests used:
14-3-3ε [1] = target: 14-3-3ε (UniProt P92177); assay: GST-14-3-3ε pull-down, anti-GFP blot; settings: reference: wild type Ncd-GFP; sites S96
14-3-3ε [2] = target: 14-3-3ε (UniProt P92177); assay: MBP-14-3-3ε amylose pull-down of purified tail; settings: reference: Ncd tail without kinase; sites S96
14-3-3ε [3] = target: 14-3-3ε (UniProt P92177); assay: MBP-14-3-3ε pull-down, anti-pS96 blot; settings: reference: unphosphorylated Ncd tail (control not described in text); sites S96

- binding against the reference (14-3-3ε [1]): weaker
Substance: Ncd (kinesin-14) (from UniProt P20480) S96A

- binding against the reference (14-3-3ε [2]): stronger
Substance: Ncd (kinesin-14) tail, 58-192 (from UniProt P20480) PKD2-phosphorylated Ncd tail

- binding against the reference (14-3-3ε [3]): stronger
Substance: Ncd (kinesin-14) tail, 58-192 (from UniProt P20480) Ncd tail after PKD2 and cold ATP
